The values below come from US20260234245A1 (ELTHERA, published 2026).

The target of experiment [1] is T1, soluble His-tagged human L1CAM (extracellular portion, amino acids 20 to 1120) (human, UniProt P32004 20-1120).
T1 construct: range 20-1120; Expressed in HEK cells with an N-terminal leader peptide for secretion (not part of the assayed protein)
Description: SPR (Biacore T200), antibody captured on Protein A chip, His-tagged human L1CAM as analyte 5, 10, 20, 40 nM, 1:1 Langmuir fit. As to the method:
(§1) Monovalent kinetic binding constants of the eight humanized antibody variants towards human L1CAM were determined by surface plasmon resonance using a Biacore T200 instrument. Antibodies were captured via their Fc regions on a C1 Protein A Chip (GE Healthcare), and soluble His-tagged human L1CAM was injected as analyte in 3 different concentrations (10, 20 and 40 nM), using 10 mM HEPES/150 mM NaCl/3 mM EDTA/0.05% Tween 20 as running buffer. Detected resonance units (sensorgrams) were fitted to a 1:1 Langmuir binding model and association (kₐ) and dissociation (kd) rate constants as well as the affinity constants (KD) were calculated.
The monovalent kinetic binding constants towards human L1CAM were determined by surface plasmon resonance using a Biacore T200 instrument as described in Example 4, except that soluble His-tagged human L1CAM was injected in 4 different concentrations (5, 10, 20 and 40 nM).
Background: SPR reads the build-up and loss of mass on a sensor chip optically.

The target in experiment [2] is T1, soluble His-tagged human L1CAM …. In words: SPR (Biacore T200), antibody captured on C1 Protein A chip, His-tagged human L1CAM as analyte 10, 20, 40 nM, 1:1 Langmuir fit. As to the method:
as §1

Substitutions are numbered along the chain they refer to. Names may count otherwise.

T1 sequence (P32004 other isoform, or with tags, fused parts or gaps limits assumed): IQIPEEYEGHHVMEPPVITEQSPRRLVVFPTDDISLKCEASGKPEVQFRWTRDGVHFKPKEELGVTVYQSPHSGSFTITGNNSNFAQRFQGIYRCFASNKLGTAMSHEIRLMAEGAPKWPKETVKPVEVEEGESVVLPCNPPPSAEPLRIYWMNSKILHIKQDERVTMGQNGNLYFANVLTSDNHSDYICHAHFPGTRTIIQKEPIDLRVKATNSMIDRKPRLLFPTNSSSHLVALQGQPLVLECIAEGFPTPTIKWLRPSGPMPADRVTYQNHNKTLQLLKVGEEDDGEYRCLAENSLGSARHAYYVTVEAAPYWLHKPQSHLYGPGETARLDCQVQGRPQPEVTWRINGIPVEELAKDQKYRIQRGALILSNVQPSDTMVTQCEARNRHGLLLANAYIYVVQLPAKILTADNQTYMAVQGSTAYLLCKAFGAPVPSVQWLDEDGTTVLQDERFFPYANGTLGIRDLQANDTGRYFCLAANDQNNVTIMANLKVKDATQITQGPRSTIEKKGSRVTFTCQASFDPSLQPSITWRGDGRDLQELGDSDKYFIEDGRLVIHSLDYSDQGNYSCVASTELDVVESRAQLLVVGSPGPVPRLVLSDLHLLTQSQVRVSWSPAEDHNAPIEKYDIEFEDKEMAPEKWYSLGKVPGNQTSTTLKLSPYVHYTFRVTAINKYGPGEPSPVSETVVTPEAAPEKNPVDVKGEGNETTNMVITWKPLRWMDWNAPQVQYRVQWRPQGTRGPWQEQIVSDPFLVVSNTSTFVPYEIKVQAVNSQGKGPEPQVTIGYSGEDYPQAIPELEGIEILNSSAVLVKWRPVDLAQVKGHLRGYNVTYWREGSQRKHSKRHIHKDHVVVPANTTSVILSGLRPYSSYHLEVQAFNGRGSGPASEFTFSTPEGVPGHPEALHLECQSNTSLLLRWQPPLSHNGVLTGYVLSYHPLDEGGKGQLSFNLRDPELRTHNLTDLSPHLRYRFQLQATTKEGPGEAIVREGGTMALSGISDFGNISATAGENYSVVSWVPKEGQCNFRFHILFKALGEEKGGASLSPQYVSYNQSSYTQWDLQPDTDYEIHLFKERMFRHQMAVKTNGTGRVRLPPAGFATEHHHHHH

B1: Humanized optimized antibody “AFF4” (human IgG format; with G236A/S239D/A330L/I332E mutations) (antibody)
heavy: QVQLQESGPGLVKPSQTLSLTCTVTGYSITSDYTWNWIRQFPGKGLEWMGYISYSGSYSYNPSLKSRVTISRDTSKNQFSLKLSSVTAADTAVYYCARSFSYSYGFAYWGQGTLVTVSSASTKGPSVFPLAPSSKSTSGGTAALGCLVKDYFPEPVTVSWNSGALTSGVHTFPAVLQSSGLYSLSSVVTVPSSSLGTQTYICNVNHKPSNTKVDKRVEPKSCDKTHTCPPCPAPELLAGPDVFLFPPKPKDTLMISRTPEVTCVVVDVSHEDPEVKFNWYVDGVEVHNAKTKPREEQYNSTYRVVSVLTVLHQDWLNGKEYKCKVSNKALPLPEEKTISKAKGQPREPQVYTLPPSREEMTKNQVSLTCLVKGFYPSDIAVEWESNGQPENNYKTTPPVLDSDGSFFLYSKLTVDKSRWQQGNVFSCSVMHEALHNHYTQKSLSLSPG
light: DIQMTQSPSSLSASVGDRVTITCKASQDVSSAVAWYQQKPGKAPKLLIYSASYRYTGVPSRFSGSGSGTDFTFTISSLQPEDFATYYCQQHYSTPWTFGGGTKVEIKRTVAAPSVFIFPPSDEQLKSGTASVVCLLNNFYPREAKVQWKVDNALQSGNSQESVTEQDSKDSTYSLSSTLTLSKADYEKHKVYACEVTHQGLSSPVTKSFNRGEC
notes: also called AFF4 antibody
Regarding B1, in experiment [1], the Kd (in general, the free concentration of one partner at which half of the binding sites on the other are occupied at equilibrium, for simple one-to-one binding) amounted to 200 pM; the koff (usually a measure of how fast the partners let go of each other) came out at 8.45e-05 s⁻¹; the kon (in general, the rate constant with which the complex forms) came out at 416000 M⁻¹ s⁻¹.

B2: H1L1 (antibody, V domains shown)
VH: QVQLQESGPGLVKPSQTLSLTCTVTGYSITSDYAWNWIRQFPGKGLEWMGYISYSGSFSYHPSLKSRVTISRDTSKNQFSLKLSSVTAADTAVYYCARSFSYGYGFAYWGQGTLVTVSS
VL: DIQMTQSPSSLSASVGDRVTITCKASQDVSSAVAWYQQKPGKAPKLLIYSASYRYTGVPSRFSGSGSGTDFTFTISSLQPEDFATYYCQQHYSTPWTFGGGTKVEIK
notes: also called humanized antibody variant H1L1; parental antibody H1L1
Take B2: in experiment [2], the Kd was 4500 pM, the koff is 0.00079 s⁻¹ and the kon was determined as 177000 M⁻¹ s⁻¹.

B3: AFF1 (antibody, human IgG1, V domains shown)
VH: B2 VH with H61N, G103S
VL: B2 VL
In experiment [1], B3 came in with a Kd of 360 pM, a koff of 0.000104 s⁻¹ and a kon of 290000 M⁻¹ s⁻¹.

B4: AFF9 (antibody, human IgG1, V domains shown)
VH: B2 VH with F58Y, H61N, G103A
VL: B2 VL
In the case of B4, in experiment [1], the Kd was determined as 360 pM, the koff was determined as 9.28e-05 s⁻¹ and the kon was found to be 258000 M⁻¹ s⁻¹.

B5: AFF2 (antibody, human IgG1, V domains shown)
VH: B2 VH with A34T, H61N, G103S
VL: B2 VL
As for B5, in experiment [1], binding was put at a Kd of 310 pM, the koff was found to be 0.000126 s⁻¹ and the on-rate constant (kon) was determined as 411000 M⁻¹ s⁻¹.

B6: H2L1 (antibody, V domains shown)
VH: B2 VH with K44N, M49I
VL: B2 VL
notes: also called humanized antibody variant H2L1
Turning to B6, in experiment [2], the Kd worked out at 4400 pM, the off-rate constant (koff) was 0.000751 s⁻¹ and the kon turned out to be 170000 M⁻¹ s⁻¹.

B7: AFF6 (antibody, human IgG1, V domains shown)
VH: B2 VH with A34T, H61N, F100L
VL: B2 VL
Consider B7, for which, in experiment [1], binding was put at a Kd of 980 pM, the dissociation rate constant (koff) was determined as 0.000337 s⁻¹ and the kon was found to be 345000 M⁻¹ s⁻¹.

B8: H4L2 (antibody, V domains shown)
VH: B2 VH with K44N, G45K, L46V
VL: B2 VL with Q3V, K42Q, A43S, S60D, V104L
notes: also called humanized antibody variant H4L2
B8: in experiment [2], the Kd was determined as 6300 pM, the koff was 0.000859 s⁻¹ and the association rate constant (kon) came to 137000 M⁻¹ s⁻¹.

B9: H3L1 (antibody, V domains shown)
VH: B2 VH with K44N
VL: B2 VL
notes: also called humanized antibody variant H3L1
In experiment [2], B9 returned a Kd of 5100 pM, a koff of 0.000858 s⁻¹ and a kon of 168000 M⁻¹ s⁻¹.

B10: AFF5 (antibody, human IgG1, V domains shown)
VH: B2 VH with A34T, F58Y, F100L
VL: B2 VL
In experiment [1], B10 came in with a Kd of 720 pM, a koff of 0.000252 s⁻¹ and a kon of 349000 M⁻¹ s⁻¹.

B11: H4L1 (antibody, V domains shown)
VH: B2 VH with K44N, G45K, L46V
VL: B2 VL
notes: also called humanized antibody variant H4L1
For the molecule B11, in experiment [2], binding was put at a Kd of 4700 pM, the koff amounted to 0.000847 s⁻¹ and the kon came to 179000 M⁻¹ s⁻¹.

B12: H1L2 (antibody, V domains shown)
VH: B2 VH
VL: B2 VL with Q3V, K42Q, A43S, S60D, V104L
notes: also called humanized antibody variant H1L2
In experiment [2], B12 displayed a Kd of 6100 pM, a koff of 0.000872 s⁻¹ and a kon of 144000 M⁻¹ s⁻¹.

B13: H2L2 (antibody, V domains shown)
VH: B2 VH with K44N, M49I
VL: B2 VL with Q3V, K42Q, A43S, S60D, V104L
notes: also called humanized antibody variant H2L2
In experiment [2], B13 displayed a Kd of 6000 pM, a koff of 0.000867 s⁻¹ and an on-rate constant (kon) of 144000 M⁻¹ s⁻¹.

B14: AFF7 (antibody, human IgG1, V domains shown)
VH: B2 VH with H61N, G103S
VL: B2 VL with T56I
In experiment [1], B14 showed a Kd of 320 pM, a koff of 8.83e-05 s⁻¹ and a kon of 273000 M⁻¹ s⁻¹.

B15: H3L2 (antibody, V domains shown)
VH: B2 VH with K44N
VL: B2 VL with Q3V, K42Q, A43S, S60D, V104L
notes: also called humanized antibody variant H3L2
In experiment [2], B15 gave a Kd of 6800 pM, a koff of 0.000887 s⁻¹ and a kon of 131000 M⁻¹ s⁻¹.

B16: AFF8 (antibody, human IgG1, V domains shown)
VH: B2 VH with A34T, H61N, G103S
VL: B2 VL with T56I
In experiment [1], B16 returned a Kd of 300 pM, a koff of 0.000116 s⁻¹ and a kon of 383000 M⁻¹ s⁻¹.

B17: AFF10 (antibody, human IgG1, V domains shown)
VH: B2 VH with A34T, F58Y
VL: B2 VL
In experiment [1], B17 showed a Kd of 990 pM, a koff of 0.000251 s⁻¹ and a kon of 255000 M⁻¹ s⁻¹.

B18: AFF3 (antibody, human IgG1, V domains shown)
VH: B2 VH with F58Y, H61N, G103S
VL: B2 VL
Regarding B18, in experiment [1], binding was characterised by a dissociation constant (Kd) of 220 pM, the koff stood at 6.52e-05 s⁻¹ and the kon came out at 299000 M⁻¹ s⁻¹.
